From CN105695419A come the findings set out here.

The target in this experiment is His标签蛋白. Briefly: ELISA titre of mouse ascites. For orientation: ELISA stands for enzyme-linked immunosorbent assay.

B1: 杂交瘤细胞株4C9(CCTCC NO. C2015198)分泌的抗His标签蛋白单克隆抗体 (antibody, V domains shown)
VH: EVQLQESGAELMKPGASVKLSCKATGYTFTGYWIEWVKQRPGHGLEWIGEILPGSGSINHNENFKDKATFTADTSSNTAYMQLNSLTTEDSAVYFCAGGGGYWGQGTTLTVSS
VL: EIVITQTPLSLPVSLGDQASISCRSSRSIVHSNGNTYLEWYLQKPGQSPKLLIYKVSNRVSGVPDRFSGSGSGTDFTLKISRVEAEDLGVYYCFQGSHVPLTFGAGTKLELKR
B1 had an ELISA效价 of 1.28e+06.
